Measurements reported in patent US20180016620A1 (KITE PHARMA, published 2018).
No end group written: not given here.

Key:
[1] = target: T1, SEQ ID NO: 490 GKPGSGEGSTKG (also: biotin on N-terminus or on added C-terminal Lys, which not given here); assay: epitope mapping ELISA: antibody captured on Protein G plate, biotinylated peptide, streptavidin-HRP, chemiluminescence
T1 peptide: GKPGSGEGSTKG
Procedure: (§1) The antibodies (i.e., antigen binding molecules) were epitope mapped via ELISA using the full length peptide, […] (SEQ ID NO:1), and variants truncated on either the N- or C-terminus and containing either a biotin moiety on the N-terminus, or a lysine residue with a biotin moiety on the C-terminus. The antibodies were captured in 96-well plate format using plates pre-coated with Protein G (Pierce). The plates were washed 6× in PBST buffer followed by incubation with target peptides. An additional 6× wash was performed with PBST and the antibodies were further incubated with streptavidin-HRP. Upon a final 6× wash in PBST, signal was detected and quantified via enhanced chemiluminescense kit (ECL, from GE Healthcare) and a Varioskan Flash plate reader (Thermo Fisher).

[2] = target: T2, SEQ ID NO: 486 GSTSGSGKPGSGEG (also: biotin on N-terminus or on added C-terminal Lys, which not given here); assay: as above
T2 peptide: GSTSGSGKPGSGEG
Procedure: as §1

[3] = target: T3, SEQ ID NO: 497 SGKPGSGEGSTKG (also: biotin on N-terminus or on added C-terminal Lys, which not given here); assay: as above
T3 peptide: SGKPGSGEGSTKG
Procedure: as §1

[4] = target: T4, SEQ ID NO: 489 GSGKPGSGEGSTKG (also: biotin on N-terminus or on added C-terminal Lys, which not given here); assay: as above
T4 peptide: GSGKPGSGEGSTKG
Procedure: as §1

[5] = target: T5, SEQ ID NO: 485 GSTSGSGKPGSGEGST (also: biotin on N-terminus or on added C-terminal Lys, which not given here); assay: as above
T5 peptide: GSTSGSGKPGSGEGST
Procedure: as §1

[6] = target: T6, SEQ ID NO: 496 GSTSGSGKPGSGE (also: biotin on N-terminus or on added C-terminal Lys, which not given here); assay: as above
T6 peptide: GSTSGSGKPGSGE
Procedure: as §1

[7] = target: T7, GSTSGSGKPGSGEG SEQ ID NO: 486 (also: biotin on N-terminus or on added C-terminal Lys, which not given here); assay: ELISA: antibody captured on Protein G plate, biotinylated peptide, streptavidin-HRP, chemiluminescence; y axis 0 to 7000000 without unit
T7 construct: also called 18 mer lacking its 4 C-terminal residues
T7 peptide: GSTSGSGKPGSGEG
Procedure: as §1

[8] = target: T8, GSGKPGSGEGSTKG SEQ ID NO: 489 (also: biotin on N-terminus or on added C-terminal Lys, which not given here); assay: as above
T8 construct: also called 18 mer lacking its 4 N-terminal residues
T8 peptide: GSGKPGSGEGSTKG
Procedure: as §1

[9] = target: T9, GSTSGSGKPGSGEGST SEQ ID NO: 485 (also: biotin on N-terminus or on added C-terminal Lys, which not given here); assay: as above
T9 construct: also called 18 mer lacking its 2 C-terminal residues
T9 peptide: GSTSGSGKPGSGEGST
Procedure: as §1

[10] = target: T10, full length 18 mer linker peptide GSTSGSGKPGSGEGSTKG (also: biotin on N-terminus or on added C-terminal Lys, which not given here); assay: as above
T10 construct: Synthetic linker peptide; also called full-length linker peptide; Whitlow linker
T10 peptide: GSTSGSGKPGSGEGSTKG
Procedure: as §1

FL_peptide_OVA = target: T11, FL_peptide_OVA (also: conjugated to ovalbumin, site and chemistry not given here); assay: ELISA as for the peptides of the figure; y axis 0 to 7000000 without unit
T11 construct: not shown: the ovalbumin carrier protein
T11 peptide: GSTSGSGKPGSGEGSTKG
Procedure: as §1

[11] = target: T12, SEQ ID NO: 498 KPGSGEGSTKG (also: biotin on N-terminus or on added C-terminal Lys, which not given here); assay: epitope mapping ELISA: antibody captured on Protein G plate, biotinylated peptide, streptavidin-HRP, chemiluminescence
T12 peptide: KPGSGEGSTKG
Procedure: as §1

[12] = target: T13, GKPGSGEGSTKG SEQ ID NO: 490 (also: biotin on N-terminus or on added C-terminal Lys, which not given here); assay: ELISA: antibody captured on Protein G plate, biotinylated peptide, streptavidin-HRP, chemiluminescence; y axis 0 to 7000000 without unit
T13 construct: also called 18 mer lacking its 6 N-terminal residues
T13 peptide: GKPGSGEGSTKG
Procedure: as §1

Measured: binding result

B1: Clone 8 anti-linker antibody (antibody, V domains shown)
VH: QSVEESGGRLVTPGTPLTLTCTASGFTISNLAIIWVRQAPGKGLEYIGDIDGRGDIYCATWAKGRFTISKTSTTLDLRFTSPTTEDTATYFCAVDGDGSGWGDFNFWGPGTLVTVSS
VL: AYDMTQTPASVEVAVGGTVSIKCQASQSISTALAWYQQKPGQPPKLLIYRASTLASGVSSRFKGSGSGTQFTLTISGVECDDAATYYCQQGWSTVNVDNVFGGGTEVVVRD
notes: Rabbit monoclonal from a hybridoma; also called Clone 8-4; 8-4
not listed: [11] | [12]
binds: all other assays above

B2: Clone 16 anti-linker antibody (antibody, V domains shown)
VH: QSLEESGGRLVTPGTPLTLTCTVSGSDISSYHMGWVRQAPGKGLEYIGIIVSSGSAYYATWAKGRFTISRTSTTVDLKITSPTTEDSATYFCARNQYSGYGFSFWGPGTLVTVSS
VL: AVVLTQTPSPVSTAVGGTVTINCQSSHSVYYGDWLAWYQQKPGQPPKLLIYRASNLASGVPSRFKGSGSGTQFTLTISGVQCDDAATYYCLGGYDDDGETAFGGGTEVVVKD
notes: Rabbit monoclonal from a hybridoma; also called Clone 16-6; 16-6
binds: all assays above
